This assay deals with HyHEL-10 antibody. The assay is described as follows: SPR; binding affinity of the HEL variants to HyHEL-10; who was immobilised is not shown (Fig. S20). (Surface plasmon resonance follows binding to a sensor surface in real time, without labels.)

The record followed here is paper PMC5965250.

Regarding “HEL-K96Nvoc (10) (from UniProt P00698 19-147) (natural protein)”, the fold weaker binding affinity than native HEL came to 6000 fold.
